{"source": "paper PMC7505474", "about": "“Toll-like receptor 4-mediated inflammation triggered by extracellular IFI16 is enhanced by lipopolysaccharide binding” (PLoS Pathogens, 2020)", "key": {"[1]": {"system": "786-O cells", "assay": "Cytokine release by ELISA in 786-O culture supernatants", "type": "cell-based, human", "settings": "24 h post-treatment, 25 μg/ml, alone or complexed with LPS", "description": "(§1) For treatments, cells were stimulated in complete medium with endotoxin-free IFI16 (25 μg/ml), endotoxin-free IFI16ΔHINB (25 μg/ml), MPLA, DPLA, LPS-F583, LPS-EB, LPS-RS, alone or pre-complexed by O/N incubation at 4°C, unless specified otherwise. Additionally, cells were stimulated with supernatants of untreated or UVB-treated U2OS or U2OS-IFI16^-/- cells alone or preincubated O/N at 4°C with LPS-EB, or LPS-RS. LPS variants or lipid A moieties were used at a concentration of 10 ng/ml. All treatments were carried out at 37°C and 5% CO2.\nCytokines secreted in culture supernatants after treatments were analyzed using human IL-6 DuoSet ELISA and human IL-8 DuoSet ELISA (all from R&D Systems), human TNF-α Uncoated ELISA and human IL-1β Uncoated ELISA (Thermo Fisher Scientific) according to the manufacturer’s instructions. Absorbance was measured using a Spark multimode microplate reader (Tecan)."}, "[2]": {"system": "NF-κB", "assay": "ELISA-based transcription factor binding assay, 786-O nuclear extracts", "type": "cell-based, human", "settings": "2 h, IFI16 25 μg/ml, LPS-EB 10 ng/ml", "description": "(§2) Nuclear extracts were prepared using NE-PER Nuclear and Cytoplasmic Extraction Reagents (Thermo Fisher Scientific), according to the manufacturer’s instructions. NF-κB binding activity to a DNA probe containing its binding consensus sequence was measured by Universal Transcription Factor Assay Colorimetric kit (Merck Millipore). […] The following biotinylated oligonucleotides were used: sense (biotin): 5’-[…]-3’; antisense: 5’-[…]-3’."}, "[3]": {"assay": "In vitro pull-down assay with biotin-LPS-EB and streptavidin beads", "type": "binding, E. coli O111:B4", "settings": "3 μg recombinant protein; 10 μg biotin-LPS-EB", "description": "Biotin-labeled LPS-EB (10 μg) was incubated with 30 μl of streptavidin sepharose high performance beads (GE Healthcare) for 3 h at 4°C. After a washing step, 3 μg of recombinant IFI16, PYRIN, HINA, HINB, IFI16ΔHINB, or GST were added and incubated O/N at 4°C. After five washes with 1X PBS with 0.25% Triton X-100 (Sigma-Aldrich), samples were boiled in sample buffer containing SDS and β-mercaptoethanol and centrifuged. Supernatants were separated on a 7.5% or 12% SDS-polyacrylamide gel (Bio-Rad). Gels were stained with Coomassie brilliant blue (Serva Electrophoresis GmbH) for protein visualization."}, "[4]": {"molecular_target": "T1, TLR4/MD2 receptor (Homo sapiens, UniProt O00206+Q9Y6Y9)", "assay": "Co-immunoprecipitation with anti-TLR4 antibody from treated 786-O cells", "type": "cell-based", "design": "endogenous in cells; host or cells: 786-O", "settings": "786-O cells stimulated 1 h; extracts untreated or DNase I-treated", "description": "Co-immunoprecipitation of TLR4 with interacting proteins was performed using the Dynabeads Protein G Immunoprecipitation Kit (ThermoFisher), according to the manufacturer’s instructions with minor modifications. Briefly, after lysis of treated cells, 20 μg of total cell extracts were kept as the input control, while 90 μg of total cell extracts were incubated for 1 h at RT with 2.5 μg of anti-TLR4 antibody previously conjugated with magnetic beads. The resulting complexes were then washed, eluted, denatured, and subjected to Western blotting as described above. For DNase-treated cell extracts, DNase I (Sigma Aldrich) was added at a 1:10 dilution and incubated for 15 min at RT. Images were acquired, and densitometry of the bands was performed using Quantity One software (version 4.6.9, Bio-Rad). Densitometry values were normalized using the corresponding loading controls."}, "[5]": {"system": "gram-negative bacteria (E. coli, Klebsiella pneumoniae)", "assay": "Whole cell ELISA on formalin-fixed gram-negative bacteria", "type": "binding", "settings": "formalin-fixed bacteria as solid phase", "description": "(§3) For whole-cell ELISA, different strains of bacteria (i.e., gram-positive: Staphylococcus aureus, Staphylococcus epidermidis and Streptococcus pyogenes; gram-negative: Escherichia coli and Klebsiella pneumonia) were grown in LB medium without antibiotics and, after washing with 1X PBS, fixed in 0.5% formalin O/N at 4°C. Subsequently, the bacteria were diluted to an OD600 of 0.5 and were used to coat microtiter plates O/N at 37°C. After blocking, increasing concentrations of IFI16 were added to the wells and incubated for 2 h at RT. Anti-IFI16 antibodies against the N-terminus of the protein and HRP-labelled anti-rabbit IgG were then added as primary and secondary antibody, respectively, and binding was detected as described above."}, "[6]": {"system": "THP-1 cells", "assay": "qRT-PCR of proinflammatory cytokine mRNA in THP-1 cells", "type": "cell-based, human", "settings": "24 h, IFI16 25 μg/ml, over mock-treated cells", "description": "as §1\n(§4) Quantitative real-time PCR (qRT-PCR) was performed on a CFX96 Real-Time PCR Detection System (Bio-Rad) as previously described. Total RNA was extracted using TRI Reagent (Sigma-Aldrich), and 1 μg was retrotranscribed using an iScript cDNA Synthesis Kit (Bio-Rad). Reverse-transcribed cDNAs were amplified in duplicate using SsoAdvanced Universal SYBR Green Supermix (Bio-Rad). The glyceraldehyde 3-phosphate dehydrogenase (GAPDH) gene was used as housekeeping gene to normalize for variations in cDNA levels. The relative normalized expression after stimulation as compared to control was calculated as fold change = 2 ^-Δ(ΔCT) where ΔCT = CTtarget—CTGADPH and Δ(ΔCT) = ΔCTstimulated - ΔCTcontrol. The primer sequences are available upon request."}, "[7]": {"system": "NF-κB", "assay": "ELISA-based transcription factor binding assay, THP-1 nuclear extracts", "type": "cell-based, human", "settings": "2 h, IFI16 25 μg/ml, LPS-EB 10 ng/ml", "description": "as §2"}, "[8]": {"system": "786-O cells", "assay": "qRT-PCR of proinflammatory cytokine mRNA in 786-O cells", "type": "cell-based, human", "settings": "24 h, IFI16 25 μg/ml, over mock-treated cells", "description": "as §1, §4"}, "[9]": {"system": "gram-positive bacteria (Staphylococcus aureus, Staphylococcus epidermidis, Streptococcus pyogenes)", "assay": "Whole cell ELISA on formalin-fixed gram-positive bacteria", "type": "binding", "settings": "formalin-fixed bacteria as solid phase", "description": "as §3"}, "[10]": {"molecular_target": "T1, TLR4/MD2 receptor", "assay": "SPR, analytes over immobilized TLR4/MD2", "type": "binding", "design": "purchased R&D Systems 3146-TM-050/CF", "description": "The Biacore X100 (GE Healthcare) instrument was used for real-time binding interaction experiments. Recombinant TLR4 or TLR4/MD2 complex was covalently immobilized onto the surface of sensor CM5 (cat # BR100012, GE Healthcare) chips via amine coupling. TLR4 was diluted to a concentration of 10 μg/ml in 10 mM sodium acetate at pH 4.0, while TLR4/MD2 complex was diluted to a concentration of 20 μg/ml in the same buffer. Both proteins were injected on CM5 chips at a flow rate of 10 μl/min, upon activation of the carboxyl groups on the sensor surface with 7-min injection of a mixture of 0.2 M EDC and 0.05 M NHS. The remaining esters were blocked with 7-min injection of ethanolamine. Taking into account the ligands (TLR4 or TLR4/MD2) and analytes (IFI16, LPS-EB or IFI16/LPS-EB) molecular weights (MW) of 70 or 90 kDa, and 90, 10 or 100 kDa respectively, the appropriate ligand density (RL) on the chip was calculated according to the following equation: RL = (ligand MW/analyte MW) × Rmax × (1/Sm), where Rmax is the maximum binding signal and Sm corresponds to the binding stoichiometry. The target capture level of the TLR4 or TLR4/MD2 was of 596.0 or 1,223.9 response units (RUs), respectively. […] Increasing concentrations of endotoxin-free IFI16, LPS-EB or IFI16/LPS-EB complex were flowed over the CM5 sensor chip coated with TLR4 or TLR4/MD2 at a flow rate of 30 μl/min at 25°C with an association time of 120 s for IFI16 alone and the IFI16/LPS-EB complex, and 180 s for LPS-EB, and a dissociation phase of 180 s for IFI16 and IFI16/LPS-EB complex or 600 s for LPS-EB. A single regeneration step with 50 mM NaOH was performed following each analytic cycle. All the analytes tested were diluted in the HBS-EP+ buffer (GE Healthcare). […]"}, "[11]": {"molecular_target": "T2, TLR4 (Homo sapiens, UniProt O00206)", "T2 construct": "purchased R&D Systems 478-TR-050", "T2 sequence (O00206 24-631 limits assumed)": "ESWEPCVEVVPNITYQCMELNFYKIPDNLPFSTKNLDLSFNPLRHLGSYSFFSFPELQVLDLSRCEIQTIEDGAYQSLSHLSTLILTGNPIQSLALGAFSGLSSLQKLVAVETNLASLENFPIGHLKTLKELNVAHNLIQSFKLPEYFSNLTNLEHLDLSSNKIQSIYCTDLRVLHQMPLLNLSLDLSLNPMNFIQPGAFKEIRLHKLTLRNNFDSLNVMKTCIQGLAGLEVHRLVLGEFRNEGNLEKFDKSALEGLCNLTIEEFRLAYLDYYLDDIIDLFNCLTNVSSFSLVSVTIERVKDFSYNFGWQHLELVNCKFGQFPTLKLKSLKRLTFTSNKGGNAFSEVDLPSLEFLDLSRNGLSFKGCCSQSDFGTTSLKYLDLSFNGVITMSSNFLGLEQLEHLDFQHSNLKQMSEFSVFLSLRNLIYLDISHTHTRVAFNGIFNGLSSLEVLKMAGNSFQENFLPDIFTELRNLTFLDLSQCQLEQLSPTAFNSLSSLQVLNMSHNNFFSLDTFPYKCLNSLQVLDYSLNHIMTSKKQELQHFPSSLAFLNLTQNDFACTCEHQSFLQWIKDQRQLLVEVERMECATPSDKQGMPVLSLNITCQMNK", "assay": "SPR, IFI16 over immobilized TLR4", "type": "binding", "settings": "IFI16 31.25–1,000 nM over immobilized TLR4; read-out: equilibrium dissociation constant (KD)", "description": "The Biacore X100 (GE Healthcare) instrument was used for real-time binding interaction experiments. Recombinant TLR4 or TLR4/MD2 complex was covalently immobilized onto the surface of sensor CM5 (cat # BR100012, GE Healthcare) chips via amine coupling. TLR4 was diluted to a concentration of 10 μg/ml in 10 mM sodium acetate at pH 4.0, while TLR4/MD2 complex was diluted to a concentration of 20 μg/ml in the same buffer. Both proteins were injected on CM5 chips at a flow rate of 10 μl/min, upon activation of the carboxyl groups on the sensor surface with 7-min injection of a mixture of 0.2 M EDC and 0.05 M NHS. The remaining esters were blocked with 7-min injection of ethanolamine. Taking into account the ligands (TLR4 or TLR4/MD2) and analytes (IFI16, LPS-EB or IFI16/LPS-EB) molecular weights (MW) of 70 or 90 kDa, and 90, 10 or 100 kDa respectively, the appropriate ligand density (RL) on the chip was calculated according to the following equation: RL = (ligand MW/analyte MW) × Rmax × (1/Sm), where Rmax is the maximum binding signal and Sm corresponds to the binding stoichiometry. The target capture level of the TLR4 or TLR4/MD2 was of 596.0 or 1,223.9 response units (RUs), respectively. […]"}}}
{"molecule": "IFI16: human recombinant IFI16 protein, endotoxin-free (protein) MGKKYKNIVLLKGLEVINDYHFRMVKSLLSNDLKLNLKMREEYDKIQIADLMEEKFRGDAGLGKLIKIFEDIPTLEDLAETLKKEKLKVKGPALSRKRKKEVDATSPAPSTSSTVKTEGAEATPGAQKRKKSTKEKAGPKGSKVSEEQTQPPSPAGAGMSTAMGRSPSPKTSLSAPPNSSSTENPKTVAKCQVTPRRNVLQKRPVIVKVLSTTKPFEYETPEMEKKIMFHATVATQTQFFHVKVLNTSLKEKFNGKKIIIISDYLEYDSLLEVNEESTVSEAGPNQTFEVPNKIINRAKETLKIDILHKQASGNIVYGVFMLHKKTVNQKTTIYEIQDDRGKMDVVGTGQCHNIPCEEGDKLQLFCFRLRKKNQMSKLISEMHSFIQIKKKTNPRNNDPKSMKLPQEQRQLPYPSEASTTFPESHLRTPQMPPTTPSSSFFTKKSEDTISKMNDFMRMQILKEGSHFPGPFMTSIGPAESHPHTPQMPPSTPSSSFLTTLKPRLKTEPEEVSIEDSAQSDLKEVMVLNATESFVYEPKEQKKMFHATVATENEVFRVKVFNIDLKEKFTPKKIIAIANYVCRNGFLEVYPFTLVADVNADRNMEIPKGLIRSASVTPKINQLCSQTKGSFVNGVFEVHKKNVRGEFTYYEIQDNTGKMEVVVHGRLTTINCEEGDKLKLTCFELAPKSGNTGELRSVIHSHIKVIKTRKNKKDILNPDSSMETSPDFFF", "values": [{"measurement": "IL-1β release", "setting": "[1]", "result": "neither IFI16 nor IFI16ΔHINB per se or after forming a complex with LPS induced IL-1β release"}, {"measurement": "NF-κB binding activity fold induction vs untreated cells", "setting": "[2]", "result": 2.2, "unit": "fold"}, {"measurement": "Pull-down by biotin-LPS-EB (Coomassie band)", "setting": "[3]", "result": "readily detect a highly reproducible ~100-kDa band"}, {"measurement": "Co-immunoprecipitation with TLR4/MD2", "setting": "[4]", "result": "co-immunoprecipitated with TLR4/MD2 receptor"}, {"measurement": "IFI16 binding to surface of gram-negative bacteria", "setting": "[5]", "result": "strongly associated with the surface of both gram-negative bacteria species"}, {"measurement": "IL-1β gene expression fold induction", "setting": "[6]", "result": 72, "unit": "fold"}, {"measurement": "NF-κB binding activity fold induction vs untreated cells", "setting": "[7]", "result": 2.4, "unit": "fold"}, {"measurement": "IL-1β gene expression fold induction", "setting": "[8]", "result": 13, "unit": "fold"}, {"measurement": "IFI16 binding to gram-positive bacteria", "setting": "[9]", "result": "no IFI16 binding could be detected"}, {"measurement": "dissociation rate constant (Kd)", "setting": "[10]", "result": 0.00614, "unit": "s⁻¹"}, {"measurement": "Ka", "setting": "[10]; association rate constant", "result": 9070, "unit": "M⁻¹ s⁻¹"}, {"measurement": "dissociation rate constant (koff)", "setting": "[10]; dissociation rate constant", "result": 0.00614, "unit": "s⁻¹"}, {"measurement": "Rmax", "setting": "[10]; maximum response", "result": 26.09, "unit": "RU"}, {"measurement": "Kd", "setting": "[10]; text / Fig 8C legend, read-out: equilibrium dissociation constant (KD)", "result": 680, "unit": "nM"}, {"measurement": "Kd", "setting": "[11]", "result": 130, "unit": "nM"}]}
